This is an account of results in the supplement of paper PMC9112550, “Optimization of the antimicrobial peptide Bac7 by deep mutational scanning” (BMC Biology, 2022).

This series concerns Escherichia coli TOP10. Put plainly: shrunken log2 fold change of peptide-encoding DNA abundance (4.5 h post-induction vs induction); higher = less antimicrobial activity (less host growth inhibition). Particulars: time post-induction: 4.5 h; library: site-saturation at positions 5, 18, 19, 20.
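Also: peptides expressed intracellularly from a pBAD plasmid library in pooled LB shake-flask culture, induced with 0.3% L-arabinose, DNA abundance read by NGS, three biological replicates, DESeq2 with apeglm shrinkage.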

As for RRIRQRPPRLPRPRPRPCYWPRP, the “shrunken log2 fold change” value is -0.229.

Turning to RRIRLRPPRLPRPRPRPKQPPRP, the “shrunken log2 fold change” value turned out to be 0.119.

As to RRIRMRPPRLPRPRPRPLTDPRP, the “shrunken log2 fold change” value is 1.69.

In the case of RRIRWRPPRLPRPRPRPRTFPRP, the “shrunken log2 fold change” value was 0.3.

Regarding RRIRQRPPRLPRPRPRPPATPRP, the “shrunken log2 fold change” value came out at 0.452.

In the case of RRIRIRPPRLPRPRPRPAWVPRP, the “shrunken log2 fold change” value came out at 0.0748.

RRIRFRPPRLPRPRPRPFTEPRP: the “shrunken log2 fold change” value was -0.869.

Take RRIRFRPPRLPRPRPRPNKPPRP: the “shrunken log2 fold change” value was -0.00705.

Consider RRIRVRPPRLPRPRPRPQDIPRP, for which the “shrunken log2 fold change” value is -0.328.

Take RRIRKRPPRLPRPRPRPNYEPRP: the “shrunken log2 fold change” value was -0.0635.

In the case of RRIRERPPRLPRPRPRPWNTPRP, the “shrunken log2 fold change” value is -0.00122.

Regarding RRIRVRPPRLPRPRPRPSCYPRP, the “shrunken log2 fold change” value was -0.568.

Regarding RRIRCRPPRLPRPRPRPADYPRP, the “shrunken log2 fold change” value is -0.263.

With RRIRYRPPRLPRPRPRPKHTPRP, the “shrunken log2 fold change” value was -0.567.

On to RRIRCRPPRLPRPRPRPWQLPRP, for which the “shrunken log2 fold change” value is -0.263.

For RRIRNRPPRLPRPRPRPNYMPRP, the “shrunken log2 fold change” value was -0.784.

Take RRIRVRPPRLPRPRPRPAFCPRP: the “shrunken log2 fold change” value is 0.185.

With RRIRRRPPRLPRPRPRPYLNPRP, the “shrunken log2 fold change” value was -1.13.

Take RRIRVRPPRLPRPRPRPANGPRP: the “shrunken log2 fold change” value was 0.136.

Take RRIRLRPPRLPRPRPRPDDFPRP: the “shrunken log2 fold change” value was -0.0359.

RRIRGRPPRLPRPRPRPMHCPRP: the “shrunken log2 fold change” value worked out at 0.0139.

Turning to RRIRRRPPRLPRPRPRPVWYPRP, the “shrunken log2 fold change” value was determined as 0.18.

Turning to RRIRGRPPRLPRPRPRPHCNPRP, the “shrunken log2 fold change” value amounted to 0.427.

Consider RRIRERPPRLPRPRPRPCHGPRP, for which the “shrunken log2 fold change” value is -0.989.

As to RRIRNRPPRLPRPRPRPAYNPRP, the “shrunken log2 fold change” value was -0.259.

Take RRIRWRPPRLPRPRPRPDPQPRP: the “shrunken log2 fold change” value is -0.00387.

On to RRIRNRPPRLPRPRPRPNPQPRP, for which the “shrunken log2 fold change” value is 0.166.

Consider RRIRTRPPRLPRPRPRPCRPPRP, for which the “shrunken log2 fold change” value was -0.415.

Turning to RRIRNRPPRLPRPRPRPHHEPRP, the “shrunken log2 fold change” value is -0.534.

On to RRIRWRPPRLPRPRPRPYTLPRP, for which the “shrunken log2 fold change” value is -0.681.

On to RRIRGRPPRLPRPRPRPHYEPRP, for which the “shrunken log2 fold change” value is -0.21.

Consider RRIRDRPPRLPRPRPRPEALPRP, for which the “shrunken log2 fold change” value amounted to 1.21.

In the case of RRIRLRPPRLPRPRPRPTWYPRP, the “shrunken log2 fold change” value is -0.221.

As for RRIRHRPPRLPRPRPRPYKHPRP, the “shrunken log2 fold change” value was -0.512.

RRIRQRPPRLPRPRPRPVEIPRP: the “shrunken log2 fold change” value is -0.0298.

Turning to RRIRWRPPRLPRPRPRPWVNPRP, the “shrunken log2 fold change” value was -0.183.

Consider RRIRYRPPRLPRPRPRPYTGPRP, for which the “shrunken log2 fold change” value is -0.0103.

Regarding RRIRNRPPRLPRPRPRPSRFPRP, the “shrunken log2 fold change” value was -0.0872.

In the case of RRIRIRPPRLPRPRPRPFCGPRP, the “shrunken log2 fold change” value was -0.228.

As for RRIRHRPPRLPRPRPRPVRYPRP, the “shrunken log2 fold change” value is -0.551.

For RRIRMRPPRLPRPRPRPLFLPRP, the “shrunken log2 fold change” value is -0.254.

For RRIRKRPPRLPRPRPRPQCYPRP, the “shrunken log2 fold change” value was -0.114.

Take RRIRARPPRLPRPRPRPVDPPRP: the “shrunken log2 fold change” value came out at 0.291.

For RRIRVRPPRLPRPRPRPKAQPRP, the “shrunken log2 fold change” value was determined as 0.107.

As for RRIRPRPPRLPRPRPRPPYNPRP, the “shrunken log2 fold change” value is -0.495.

In the case of RRIRDRPPRLPRPRPRPLKIPRP, the “shrunken log2 fold change” value is -0.297.

On to RRIRHRPPRLPRPRPRPPTTPRP, for which the “shrunken log2 fold change” value was -0.175.

Turning to RRIRRRPPRLPRPRPRPWSMPRP, the “shrunken log2 fold change” value was -0.121.

Take RRIRWRPPRLPRPRPRPRLWPRP: the “shrunken log2 fold change” value amounted to 0.414.

For the sequence RRIRYRPPRLPRPRPRPKVFPRP, the “shrunken log2 fold change” value came out at 0.149.

Regarding RRIRYRPPRLPRPRPRPRAMPRP, the “shrunken log2 fold change” value is -0.0749.

As to RRIRKRPPRLPRPRPRPSQLPRP, the “shrunken log2 fold change” value is 0.141.

As for RRIRIRPPRLPRPRPRPSYPPRP, the “shrunken log2 fold change” value is -0.56.

Regarding RRIRYRPPRLPRPRPRPKRPPRP, the “shrunken log2 fold change” value turned out to be 0.45.

As for RRIRYRPPRLPRPRPRPNQFPRP, the “shrunken log2 fold change” value is -0.533.

On to RRIRKRPPRLPRPRPRPFNKPRP, for which the “shrunken log2 fold change” value is -0.0789.

On to RRIRDRPPRLPRPRPRPYYCPRP, for which the “shrunken log2 fold change” value is 0.0391.

Consider RRIRARPPRLPRPRPRPMVPPRP, for which the “shrunken log2 fold change” value amounted to 0.0221.

For the sequence RRIRPRPPRLPRPRPRPKWQPRP, the “shrunken log2 fold change” value stood at 0.225.

Take RRIRIRPPRLPRPRPRPRPRPRP: the “shrunken log2 fold change” value worked out at 0.472.

RRIRHRPPRLPRPRPRPHSHPRP: the “shrunken log2 fold change” value was -0.41.

Consider RRIRSRPPRLPRPRPRPHKSPRP, for which the “shrunken log2 fold change” value was -0.414.

For RRIRQRPPRLPRPRPRPWIQPRP, the “shrunken log2 fold change” value was -0.251.

Regarding RRIRIRPPRLPRPRPRPPIFPRP, the “shrunken log2 fold change” value is -0.0827.

As for RRIRFRPPRLPRPRPRPVFSPRP, the “shrunken log2 fold change” value is -0.293.

In the case of RRIRDRPPRLPRPRPRPHHNPRP, the “shrunken log2 fold change” value is -0.562.

In the case of RRIRHRPPRLPRPRPRPPEHPRP, the “shrunken log2 fold change” value was -0.116.

Turning to RRIRQRPPRLPRPRPRPGVYPRP, the “shrunken log2 fold change” value worked out at 0.0572.

For the sequence RRIRIRPPRLPRPRPRPMHLPRP, the “shrunken log2 fold change” value is -0.22.

On to RRIRDRPPRLPRPRPRPSVQPRP, for which the “shrunken log2 fold change” value amounted to 0.111.

With RRIRCRPPRLPRPRPRPKQEPRP, the “shrunken log2 fold change” value came out at 0.0247.

Turning to RRIRTRPPRLPRPRPRPICIPRP, the “shrunken log2 fold change” value was -0.196.

On to RRIRRRPPRLPRPRPRPSWWPRP, for which the “shrunken log2 fold change” value is 0.327.

In the case of RRIRERPPRLPRPRPRPHSMPRP, the “shrunken log2 fold change” value was -0.126.

With RRIRDRPPRLPRPRPRPSAQPRP, the “shrunken log2 fold change” value was found to be 0.469.

RRIRARPPRLPRPRPRPGNIPRP: the “shrunken log2 fold change” value is -0.239.

Turning to RRIRPRPPRLPRPRPRPQQMPRP, the “shrunken log2 fold change” value was -0.00373.

For RRIRRRPPRLPRPRPRPSTAPRP, the “shrunken log2 fold change” value is 0.297.

Regarding RRIRARPPRLPRPRPRPTAMPRP, the “shrunken log2 fold change” value was found to be 0.822.

As to RRIRNRPPRLPRPRPRPWWNPRP, the “shrunken log2 fold change” value is -0.141.

Take RRIRPRPPRLPRPRPRPKPSPRP: the “shrunken log2 fold change” value is 0.699.

Regarding RRIRWRPPRLPRPRPRPKQFPRP, the “shrunken log2 fold change” value amounted to 0.207.

RRIRIRPPRLPRPRPRPHRCPRP: the “shrunken log2 fold change” value was -0.0635.

Regarding RRIRHRPPRLPRPRPRPEMLPRP, the “shrunken log2 fold change” value is -0.32.

Take RRIRVRPPRLPRPRPRPVNSPRP: the “shrunken log2 fold change” value was -0.184.

For RRIRDRPPRLPRPRPRPHPHPRP, the “shrunken log2 fold change” value is -0.0722.

For RRIRCRPPRLPRPRPRPQRNPRP, the “shrunken log2 fold change” value is -0.0392.

Turning to RRIRSRPPRLPRPRPRPVHEPRP, the “shrunken log2 fold change” value is -0.185.

RRIRQRPPRLPRPRPRPFRLPRP: the “shrunken log2 fold change” value was -0.00192.

Take RRIRCRPPRLPRPRPRPMKLPRP: the “shrunken log2 fold change” value is -0.0356.

Regarding RRIRTRPPRLPRPRPRPEMNPRP, the “shrunken log2 fold change” value is 0.00876.
